Data: patent publication US20240309093A1 (MINGHUI PHARMACEUTICAL HANGZHOU, published 2024)
Read-outs that look alike come from different tables or passages of the source.

Assays:
[1] = target: T1, recombinant human PD-1-his protein (human, UniProt Q15116 25-167); assay: ELISA; PD-1-his coated 2 µg/mL, anti-human IgG Fc-HRP
T1 construct: also called hPD-1-his; not shown: his tag
Experimental: (§1) The plates were washed three times with PBST. 5% PBS-Milk was added and incubated at room temperature for 2 h. The plates were washed three times with PBST. All the nanobody-Fc fusion proteins were subject to 3-fold gradient dilutions with an initial concentration of 10 μg/mL, added into each well at 30 μL/well, and incubated at room temperature for 1 hr. The plates were washed three times with PBST. The secondary antibody Goat-Anti-Human-IgG-Fc-HRP was diluted at 1:8000, added into each well at 30 μL/well, and incubated at room temperature for 50 min. The plates were washed nine times with PBST. TMB was added into each well at 30 μL/well and developed at room temperature in dark for 1 min to 5 min. 2 M hydrochloric acid was added at 30 μL/well to stop the reaction. The OD450 absorbance value was read by a microplate reader. Graphpad Prism software was used to fit the curve and calculate the EC₅₀ value (see Table 7).

[2] = target: T2, recombinant human PD-1-Fc-Biotin (human, UniProt Q15116 25-167, biotin (site not stated)); assay: competitive ELISA; PD-L1-mFc coated, 0.5 µg/mL PD-1-Fc-Biotin, streptavidin-HRP
T2 construct: also called antigen protein human PD-1; not shown: Fc
T2 sequence (Q15116 25-167 limits assumed): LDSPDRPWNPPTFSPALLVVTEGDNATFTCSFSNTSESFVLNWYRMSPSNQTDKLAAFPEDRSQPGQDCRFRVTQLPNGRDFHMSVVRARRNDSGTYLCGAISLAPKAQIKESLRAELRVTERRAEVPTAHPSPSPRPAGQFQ
Experimental: The plates were washed three times with PBST. 5% PBS-Milk was added and incubated at room temperature for 1 hr. All the nanobody-Fc fusion proteins were subject to 3-fold gradient dilutions with an initial concentration of 10 μg/mL, added into each well at 30 μL/well, and incubated at room temperature for 1 hr. […] The well plates were washed with PBST between incubations.

[3] = target: T1, recombinant human PD-1-his protein; assay: ELISA; PD-1-his coated 2 µg/mL, anti-human IgG Fc-HRP; remark: listed apart in the source
Experimental: as §1, with “PBS-Milk” for “PBS-Milk was added”, “3-folded” for “3-fold”, “dilution” for “dilutions”, “calculate” for “calculate the”, “values.” for “value (see Table 7).”

T1 sequence (Q15116 25-167 limits assumed): as above

Row | EC50 [1] | IC50 [2] | EC50 [3] | Binder
1 | 0.553 nM | 0.419 nM | – | MHPD1-A-2 H Fc (Fc fusion, not shown: a dimerising Fc or GST; small tags and cut ends) VHH: QVQLVESGGGLVQPGGSLRLSCAASGRFPSIYAMGWFRQAPGKGLEFVAGIGWRYATTYYADSVKGRFTISRDNTKNTLYLQMNSLRAEDTAVYYCAADLDHSGFDYWGQGTLVTVSS
2 | – | – | 0.824 nM | MHPD1-A-35 H Fc (Fc fusion, not shown: Fc region) VHH: QVQLVESGGGLVQPGGSLRLSCATSAPRRSIYAMGWFRQAPGKGLEFVAGIGWAYGTTYYADSVKGRFTISRDNTKNTLYLQMNSLRAEDTAVYYCAADLDHSGFDYWGQGTLVTVSS
3 | 0.169 nM | 0.323 nM | – | MHPD1-A-8 H Fc (Fc fusion, not shown: Fc) QVQLVESGGGLVQPGGSLRLSCAASGGRPSIYAMGWFRQAPGKGLEFVAGIGWAFATTYYADSVKGRFTISRDNTKNTLYLQMNSLRAEDTAVYYCAADLDHSGFDYWGQGTLVTVSS
4 | 0.311 nM | 0.293 nM | – | MHPD1-A-12 H Fc (Fc fusion, not shown: a dimerising Fc or GST; small tags and cut ends) VHH: QVQLVESGGGLVQPGGSLRLSCAASGSDYAIYAMGWFRQAPGKGLEFVAGIGWAFATTYYADSVKGRFTISRDNTKNTLYLQMNSLRAEDTAVYYCAADLDHSGFDYWGQGTLVTVSS
5 | – | – | 0.178 nM | MHPD1-A-18 H Fc (Fc fusion, not shown: a dimerising Fc or GST; small tags and cut ends) VHH: QVQLVESGGGLVQPGGSLRLSCATSGSRSSIYAMGWFRQAPGKGLEFVAGLGWAYATTYYADSVKGRFTISRDNTKNTLYLQMNSLRAEDTAVYYCAADLDHLGFDYWGQGTLVTVSS
6 | – | – | 0.187 nM | MHPD1-A-16 H Fc (Fc fusion, not shown: a dimerising Fc or GST; small tags and cut ends) VHH: QVQLVESGGGLVQPGGSLRLSCATSGSRVSIYAMGWFRQAPGKGLEFVAGIGWAYATTYYADSVKGRFTISRDNTKNTLYLQMNSLRAEDTAVYYCAADLDHSGFDYWGQGTLVTVSS
7 | – | – | 0.219 nM | MHPD1-A-31 H Fc (Fc fusion, not shown: Fc region) VHH: QVQLVESGGGLVQPGGSLRLSCATSGSRRSIYAMGWFRQAPGKGLEFVAGLGWAYATTYYADSVKGRFTISRDNTKNTLYLQMNSLRAEDTAVYYCAADLDHHGFDYWGQGTLVTVSS
8 | – | – | 2.18 nM | MHPD1-A-29 H Fc (Fc fusion, not shown: Fc region) VHH: QVQLVESGGGLVQPGGSLRLSCATSGSGGSIYAMGWFRQAPGKGLEFVAGIGWAYATTYYADSVKGRFTISRDNTKNTLYLQMNSLRAEDTAVYYCAADLDHSGFDYWGQGTLVTVSS
9 | – | – | 0.242 nM | MHPD1-A-28 H Fc (Fc fusion, not shown: Fc region) VHH: QVQLVESGGGLVQPGGSLRLSCATSKLRRSIYAMGWFRQAPGKGLEFVAGIGWAYATQYYADSVKGRFTISRDNTKNTLYLQMNSLRAEDTAVYYCAADLDHSGFDYWGQGTLVTVSS
10 | – | – | 0.177 nM | MHPD1-A-24 H Fc (Fc fusion, not shown: Fc) QVQLVESGGGLVQPGGSLRLSCATSGSRHSIYAMGWFRQAPGKGLEFVAGIGWAYATTYYADSVKGRFTISRDNTKNTLYLQMNSLRAEDTAVYYCAADLDRAGFDYWGQGTLVTVSS
11 | – | – | 0.211 nM | MHPD1-A-25 H Fc (Fc fusion, not shown: Fc) QVQLVESGGGLVQPGGSLRLSCATSGVRRSIYAMGWFRQAPGKGLEFVAGIGWAYATTYYADSVKGRFTISRDNTKNTLYLQMNSLRAEDTAVYYCAADLDRHGFDYWGQGTLVTVSS
12 | – | – | 0.387 nM | MHPD1-A-43 H Fc (Fc fusion, not shown: a dimerising Fc or GST; small tags and cut ends) VHH: QVQLVESGGGLVQPGGSLRLSCATSGSRRSIYAMGWFRQAPGKGLEFVAGIGWAYATTYYADSVKGRFTISRDNTKNTLYLQMNSLRAEDTAVYYCAADLDRAGFDYWGQGTLVTVSS
13 | – | – | 0.242 nM | MHPD1-A-22 H Fc (Fc fusion, not shown: Fc region) VHH: QVQLVESGGGLVQPGGSLRLSCATSGSRRSIYAMGWFRQAPGKGLEFVAGIGWAYATTYYADSVKGRFTISRDNTKNTLYLQMNSLRAEDTAVYYCAADLDRGGFDYWGQGTLVTVSS
14 | 0.613 nM | 0.572 nM | – | MHPD1-A-1 H Fc (Fc fusion, not shown: a dimerising Fc or GST; small tags and cut ends) VHH: QVQLVESGGGLVQPGGSLRLSCAASGSDPSIYAMGWFRQAPGKGLEFVAGIGWAWATTYYADSVKGRFTISRDNTKNTLYLQMNSLRAEDTAVYYCAADLDRSGFDYWGQGTLVTVSS
15 | – | – | 0.193 nM | MHPD1-A-42 H Fc (Fc fusion, not shown: Fc) QVQLVESGGGLVQPGGSLRLSCATSGSRQTIYAMGWFRQAPGKGLEFVAGIGWAYATQYYADSVKGRFTISRDNTKNTLYLQMNSLRAEDTAVYYCAADLDHSGFDYWGQGTLVTVSS
16 | 0.222 nM | 0.365 nM | – | MHPD1-A-11 H Fc (Fc fusion, not shown: a dimerising Fc or GST; small tags and cut ends) VHH: QVQLVESGGGLVQPGGSLRLSCAASGSQLSIYAMGWFRQAPGKGLEFVAGIGWRFATTYYADSVKGRFTISRDNTKNTLYLQMNSLRAEDTAVYYCAADLDHSGFDYWGQGTLVTVSS
17 | 0.14 nM | 0.395 nM | – | MHPD1-A-13 H Fc (Fc fusion, not shown: Fc) QVQLVESGGGLVQPGGSLRLSCAASHADPSIYAMGWFRQAPGKGLEFVAGIGWNYATTYYADSVKGRFTISRDNTKNTLYLQMNSLRAEDTAVYYCAADLDHSGFDYWGQGTLVTVSS
18 | – | – | 0.198 nM | MHPD1-A-44 H Fc (Fc fusion, not shown: Fc) QVQLVESGGGLVQPGGSLRLSCATSGSRTRIYAMGWFRQAPGKGLEFVAGIGWAYATEYYADSVKGRFTISRDNTKNTLYLQMNSLRAEDTAVYYCAADLDHSGFDYWGQGTLVTVSS
19 | – | – | 0.27 nM | MHPD1-A-19 H Fc (Fc fusion, not shown: a dimerising Fc or GST; small tags and cut ends) VHH: QVQLVESGGGLVQPGGSLRLSCATSGSEVSIYAMGWFRQAPGKGLEFVAGIGWAYATTYYADSVKGRFTISRDNTKNTLYLQMNSLRAEDTAVYYCAADLDRRGFDYWGQGTLVTVSS
20 | – | – | 0.54 nM | MHPD1-A-27 H Fc (Fc fusion, not shown: Fc region) VHH: QVQLVESGGGLVQPGGSLRLSCATSKSRRSIYAMGWFRQAPGKGLEFVAGIGWAYATTYYADSVKGRFTISRDNTKNTLYLQMNSLRAEDTAVYYCAADLDHSGFDYWGQGTLVTVSS
21 | – | – | 0.628 nM | MHPD1-A-33 H Fc (Fc fusion, not shown: Fc region) VHH: QVQLVESGGGLVQPGGSLRLSCATSGSRSQIYAMGWFRQAPGKGLEFVAGIGWAYATTYYADSVKGRFTISRDNTKNTLYLQMNSLRAEDTAVYYCAADLDHSGFDYWGQGTLVTVSS
22 | – | – | 0.421 nM | MHPD1-A-38 H Fc (Fc fusion, not shown: a dimerising Fc or GST; small tags and cut ends) VHH: QVQLVESGGGLVQPGGSLRLSCATSGNRRSIYAMGWFRQAPGKGLEFVAGIGWAYATTYYADSVKGRFTISRDNTKNTLYLQMNSLRAEDTAVYYCAADLDRRGFDYWGQGTLVTVSS
23 | 0.16 nM | 0.407 nM | – | MHPD1-A-6 H Fc (Fc fusion, not shown: a dimerising Fc or GST; small tags and cut ends) VHH: QVQLVESGGGLVQPGGSLRLSCAASGRRPSIYAMGWFRQAPGKGLEFVAGIGWNYATTYYADSVKGRFTISRDNTKNTLYLQMNSLRAEDTAVYYCAADLDHSGFDYWGQGTLVTVSS
24 | – | – | 0.252 nM | MHPD1-A-46 H Fc (Fc fusion, not shown: a dimerising Fc or GST; small tags and cut ends) VHH: QVQLVESGGGLVQPGGSLRLSCATSGSKGSIYAMGWFRQAPGKGLEFVAGIGWAYATTYYADSVKGRFTISRDNTKNTLYLQMNSLRAEDTAVYYCAADLDRSGFDYWGQGTLVTVSS
25 | 0.163 nM | 0.256 nM | – | MHPD1-A-9 H Fc (Fc fusion, not shown: a dimerising Fc or GST; small tags and cut ends) VHH: QVQLVESGGGLVQPGGSLRLSCAASGSGHSIYAMGWFRQAPGKGLEFVAGIGWSYATTYYADSVKGRFTISRDNTKNTLYLQMNSLRAEDTAVYYCAADLDHSGFDYWGQGTLVTVSS
26 | – | – | 0.196 nM | MHPD1-A-17 H Fc (Fc fusion, not shown: a dimerising Fc or GST; small tags and cut ends) VHH: QVQLVESGGGLVQPGGSLRLSCATSGSISSIYAMGWFRQAPGKGLEFVAGIGWAYATTYYADSVKGRFTISRDNTKNTLYLQMNSLRAEDTAVYYCAADLDHSGFDYWGQGTLVTVSS
27 | 0.2 nM | 0.287 nM | – | MHPD1-A-10 H Fc (Fc fusion, not shown: a dimerising Fc or GST; small tags and cut ends) VHH: QVQLVESGGGLVQPGGSLRLSCAASGSDDRIYAMGWFRQAPGKGLEFVAGIGWRYATTYYADSVKGRFTISRDNTKNTLYLQMNSLRAEDTAVYYCAADLDHSGFDYWGQGTLVTVSS
28 | 0.157 nM | 0.306 nM | – | MHPD1-A-5 H Fc (Fc fusion, not shown: a dimerising Fc or GST; small tags and cut ends) VHH: QVQLVESGGGLVQPGGSLRLSCAASGSSLSIYAMGWFRQAPGKGLEFVAGIGWAYATTYYADSVKGRFTISRDNTKNTLYLQMNSLRAEDTAVYYCAADLDHSGFDYWGQGTLVTVSS
